Experimental data: the Human Domainome abundance scans (Beltran et al. 2025)
± gives the uncertainty stated by the source.

B1: Double-stranded RNA-specific adenosine deaminase, residues 296 to 358; numbered along this chain, P55265 (parent)
chain: MAEIKEKICDYLFNVSDSSALNLAKNIGLTKARDINAVLIDMERQGDVYRQGTTPPIWHLTDK

Variants of: B1
Assay: abundance fitness (aPCA) (normalised: wild type 0, dead -1); higher = more abundant; growth selection in yeast, the domain comes from the species named
Conditions: Homo sapiens

Variant	abundance fitness
MAEIKEKICDYLFNVSDSSALNLAKNIGLTKARDINAVLIDMERQGDVCRQGTTPPIWHLTDK [Y49C]	0.078 ± 0.059
MAEIKEKICDYLFNVSDSSALNLAKNIGLTKARDINAVLIDMERQGDVFRQGTTPPIWHLTDK [Y49F]	-0.167 ± 0.064
MAEIKEKICDYLFNVSDSSALNLAKNIGLTKARDINAVLIDMERQGDVWRQGTTPPIWHLTDK [Y49W]	-0.044 ± 0.071
MAEIKEKICDYLFNVSDSSALNLAKNIGLTKARDINAVLIDMERQGDVPRQGTTPPIWHLTDK [Y49P]	-0.519 ± 0.071
MAEIKEKICDYLFNVSDSSALNLAKNIGLTKARDINAVLIDMERQGDVERQGTTPPIWHLTDK [Y49E]	0.259 ± 0.057
MAEIKEKICDYLFNVSDSSALNLAKNIGLTKARDINAVLIDMERQGDVLRQGTTPPIWHLTDK [Y49L]	-0.27 ± 0.044
MAEIKEKICDYLFNVSDSSALNLAKNIGLTKARDINAVLIDMERQGDVIRQGTTPPIWHLTDK [Y49I]	0.053 ± 0.067
MAEIKEKICDYLFNVSDSSALNLAKNIGLTKARDINAVLIDMERQGDVSRQGTTPPIWHLTDK [Y49S]	0.111 ± 0.046
MAEIKEKICDYLFNVSDSSALNLAKNIGLTKARDINAVLIDMERQGDVNRQGTTPPIWHLTDK [Y49N]	-0.34 ± 0.084
MAEIKEKICDYLFNVSDSSALNLAKNIGLTKARDINAVLIDMERQGDVGRQGTTPPIWHLTDK [Y49G]	-0.076 ± 0.055
MAEIKEKICDYLFNVSDSSALNLAKNIGLTKARDINAVLIDMERQGDVTRQGTTPPIWHLTDK [Y49T]	0.135 ± 0.048
MAEIKEKICDYLFNVSDSSALNLAKNIGLTKARDINAVLIDMERQGDVHRQGTTPPIWHLTDK [Y49H]	-0.074 ± 0.076
MAEIKEKICDYLFNVSDSSALNLAKNIGLTKARDINAVLIDMERQGDVQRQGTTPPIWHLTDK [Y49Q]	0.051 ± 0.11
MAEIKEKICDYLFNVSDSSALNLAKNIGLTKARDINAVLIDMERQGDVVRQGTTPPIWHLTDK [Y49V]	0.177 ± 0.052
MAEIKEKICDYLFNVSDSSALNLAKNIGLTKARDINAVLIDMERQGDVMRQGTTPPIWHLTDK [Y49M]	0.003 ± 0.062
MAEIKEKICDYLFNVSDSSALNLAKNIGLTKARDINAVLIDMERQGDVRRQGTTPPIWHLTDK [Y49R]	0.007 ± 0.045
MAEIKEKICDYLFNVSDSSALNLAKNIGLTKARDINAVLIDMERQGDVKRQGTTPPIWHLTDK [Y49K]	0.161 ± 0.064
MAEIKEKICDYLFNVSDSSALNLAKNIGLTKARDINAVLIDMERQGYVYRQGTTPPIWHLTDK [D47Y]	-0.068 ± 0.06
MAEIKEKICDYLFNVSDSSALNLAKNIGLTKARDINAVLIDMERQGTVYRQGTTPPIWHLTDK [D47T]	0.205 ± 0.055
MAEIKEKICDYLFNVSDSSALNLAKNIGLTKARDINAVLIDMERQGQVYRQGTTPPIWHLTDK [D47Q]	0.122 ± 0.058
MAEIKEKICDYLFNVSDSSALNLAKNIGLTKARDINAVLIDMERQGWVYRQGTTPPIWHLTDK [D47W]	-0.234 ± 0.069
MAEIKEKICDYLFNVSDSSALNLAKNIGLTKARDINAVLIDMERQGNVYRQGTTPPIWHLTDK [D47N]	-0.322 ± 0.094

Variant	abundance fitness
MAEIKEKICDYLFNVSDSSALNLAKNIGLTKARDINAVLIDMERQGRVYRQGTTPPIWHLTDK [D47R]	0.046 ± 0.052
MAEIKEKICDYLFNVSDSSALNLAKNIGLTKARDINAVLIDMERQGMVYRQGTTPPIWHLTDK [D47M]	0.182 ± 0.054
MAEIKEKICDYLFNVSDSSALNLAKNIGLTKARDINAVLIDMERQGVVYRQGTTPPIWHLTDK [D47V]	0.288 ± 0.047
MAEIKEKICDYLFNVSDSSALNLAKNIGLTKARDINAVLIDMERQGSVYRQGTTPPIWHLTDK [D47S]	-0.114 ± 0.051
MAEIKEKICDYLFNVSDSSALNLAKNIGLTKARDINAVLIDMERQGDVYDQGTTPPIWHLTDK [R50D]	-0.761 ± 0.14
MAEIKEKICDYLFNVSDSSALNLAKNIGLTKARDINAVLIDMERQGDVYAQGTTPPIWHLTDK [R50A]	-0.238 ± 0.061
MAEIKEKICDYLFNVSDSSALNLAKNIGLTKARDINAVLIDMERQGDIYRQGTTPPIWHLTDK [V48I]	-0.139 ± 0.065
MAEIKEKICDYLFNVSDSSALNLAKNIGLTKARDINAVLIDMERQGDSYRQGTTPPIWHLTDK [V48S]	-0.585 ± 0.073
MAEIKEKICDYLFNVSDSSALNLAKNIGLTKARDINAVLIDMERQGDFYRQGTTPPIWHLTDK [V48F]	-0.927 ± 0.17
MAEIKEKICDYLFNVSDSSALNLAKNIGLTKARDINAVLIDMERQGDDYRQGTTPPIWHLTDK [V48D]	-0.335 ± 0.087
MAEIKEKICDYLFNVSDSSALNLAKNIGLTKARDINAVLIDMERQGDCYRQGTTPPIWHLTDK [V48C]	-0.389 ± 0.082
MAEIKEKICDYLFNVSDSSALNLAKNIGLTKARDINAVLIDMERQGDEYRQGTTPPIWHLTDK [V48E]	-0.23 ± 0.089
MAEIKEKICDYLFNVSDSSALNLAKNIGLTKARDINAVLIDMERQGDNYRQGTTPPIWHLTDK [V48N]	-0.286 ± 0.091
MAEIKEKICDYLFNVSDSSALNLAKNIGLTKARDINAVLIDMERQGDWYRQGTTPPIWHLTDK [V48W]	-0.692 ± 0.085
MAEIKEKICDYLFNVSDSSALNLAKNIGLTKARDINAVLIDMERQGDHYRQGTTPPIWHLTDK [V48H]	-0.574 ± 0.095
MAEIKEKICDYLFNVSDSSALNLAKNIGLTKARDINAVLIDMERQGDQYRQGTTPPIWHLTDK [V48Q]	-0.743 ± 0.11
MAEIKEKICDYLFNVSDSSALNLAKNIGLTKARDINAVLIDMERQGDTYRQGTTPPIWHLTDK [V48T]	-0.563 ± 0.069
MAEIKEKICDYLFNVSDSSALNLAKNIGLTKARDINAVLIDMERQGDPYRQGTTPPIWHLTDK [V48P]	-0.507 ± 0.075
MAEIKEKICDYLFNVSDSSALNLAKNIGLTKARDINAVLIDMERQGDKYRQGTTPPIWHLTDK [V48K]	-0.701 ± 0.11
MAEIKEKICDYLFNVSDSSALNLAKNIGLTKARDINAVLIDMERQGDYYRQGTTPPIWHLTDK [V48Y]	-0.862 ± 0.17
MAEIKEKICDYLFNVSDSSALNLAKNIGLTKARDINAVLIDMERQGDAYRQGTTPPIWHLTDK [V48A]	-0.284 ± 0.055
